From publication PMC3433420, “Comprehensive Binary Interaction Mapping of SH2 Domains via Fluorescence Polarization Reveals Novel Functional Diversification of ErbB Receptors” (PLoS ONE, 2012)
Where “and” joins values, the source holds several entries; their conditions need not be identical. Equal entries are not always repeated. Non-standard residues stand in square brackets, D forms with d. No end group written: not given here. pY = N[C@@H](Cc1ccc(OP(=O)(O)O)cc1)C(=O)O; Rhodamine = not defined here

How the values were obtained:
Experiment in all cases: peptide or protein array; SH2/PTB proteins spotted on aldehyde slides, rhodamine peptide titrated in buffer B (20 mM HEPES, 100 mM KCl, 0.1% Tween-20, 5 mM DTT, pH 7.8), 1 h at room temperature; replicate assays
Conditions in all cases: both partners purified
GRB7 SH2 domain = target: T1, GRB7 SH2 domain (human, UniProt Q14451 431-527)
T1 construct: GRB7, human; source: bacterial expression, purified
T1 sequence (Q14451 431-527): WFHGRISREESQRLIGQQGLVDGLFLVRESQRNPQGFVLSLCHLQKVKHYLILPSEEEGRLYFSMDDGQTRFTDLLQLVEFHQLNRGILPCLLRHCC

[1] = target: T2, RASA1 C-terminal SH2 domain (human)
T2 construct: RASA1, human; source: bacterial expression, purified
T2 sequence (P20936 whole entry, looked up): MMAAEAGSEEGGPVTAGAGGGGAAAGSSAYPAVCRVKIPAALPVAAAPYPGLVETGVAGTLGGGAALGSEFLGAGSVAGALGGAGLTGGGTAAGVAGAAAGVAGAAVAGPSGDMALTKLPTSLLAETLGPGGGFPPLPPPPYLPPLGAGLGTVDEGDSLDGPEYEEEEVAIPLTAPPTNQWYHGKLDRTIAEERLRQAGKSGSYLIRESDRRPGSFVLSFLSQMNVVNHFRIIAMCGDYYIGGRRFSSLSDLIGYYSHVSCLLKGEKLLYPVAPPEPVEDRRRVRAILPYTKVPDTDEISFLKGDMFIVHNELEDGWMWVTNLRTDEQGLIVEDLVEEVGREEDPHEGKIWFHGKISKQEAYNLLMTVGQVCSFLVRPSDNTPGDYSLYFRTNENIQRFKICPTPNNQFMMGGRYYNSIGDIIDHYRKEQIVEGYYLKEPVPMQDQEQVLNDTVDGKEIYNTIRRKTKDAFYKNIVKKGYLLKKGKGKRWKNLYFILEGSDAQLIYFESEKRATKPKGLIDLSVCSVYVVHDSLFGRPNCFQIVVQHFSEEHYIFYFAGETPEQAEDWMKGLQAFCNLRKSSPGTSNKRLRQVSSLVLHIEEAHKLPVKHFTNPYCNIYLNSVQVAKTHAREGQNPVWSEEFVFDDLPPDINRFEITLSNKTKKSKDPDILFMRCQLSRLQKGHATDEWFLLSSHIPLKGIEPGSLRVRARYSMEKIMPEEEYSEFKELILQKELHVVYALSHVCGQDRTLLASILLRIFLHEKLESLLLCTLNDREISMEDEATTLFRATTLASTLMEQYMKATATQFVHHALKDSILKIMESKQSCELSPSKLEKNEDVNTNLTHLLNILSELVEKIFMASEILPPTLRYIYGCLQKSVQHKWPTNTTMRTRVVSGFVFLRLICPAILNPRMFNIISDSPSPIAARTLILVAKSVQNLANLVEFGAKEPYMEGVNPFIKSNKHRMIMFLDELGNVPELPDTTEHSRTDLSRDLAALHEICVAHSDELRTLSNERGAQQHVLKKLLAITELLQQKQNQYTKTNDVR

PTPN6 tandem SH2 domains = target: T3, PTPN6 tandem SH2 domains (human)
T3 construct: PTPN6, human; also called PTPN6-NC; source: bacterial expression, purified

B1: ErbB2 pY1127 phosphopeptide, rhodamine-labelled, for protein microarrays (peptide)
chain: Rhodamine-ETDG[pY]VAPLTCSD
modifications: reading uncertain
Kd (GRB7 SH2 domain): 1600 nM and 2530 nM | Kd [1]: 1210 nM | Kd (PTPN6 tandem SH2 domains): 1620 nM
